This is an account of results in patent publication US20180296639A1 (Hoffmann-La Roche, published 2018).

To fix the notation:
B1: glyceraldehyde-3-phosphate dehydrogenase (GAPDH), human, endogenous in human retinal pericytes (hRP) (enzyme)
chain: not shown
notes: Endogenous protein in lysates of human retinal pericytes; The proposed model says GAPDH is S-nitrosylated when it associates with Siah1
B2: E3 ubiquitin ligase seven in absentia homolog 1 (Siah1), human, endogenous in human retinal pericytes (hRP) (enzyme)
chain: MSRQTATALPTGTSKCPPSQRVPALTGTTASNNDLASLFECPVCFDYVLPPILQCQSGHLVCSNCRPKLTCCPTCRGPLGSIRNLAMEKVANSVLFPCKYASSGCEITLPHTEKADHEELCEFRPYSCPCPGASCKWQGSLDAVMPHLMHQHKSITTLQGEDIVFLATDINLPGAVDWVMMQSCFGFHFMLVLEKQEKYDGHQQFFAIVQLIGTRKQAENFAYRLELNGHRRRLTWEATPRSIHEGIATAIMNSDCLVFDTSIAQLFAENGNLGINVTISMC
notes: Endogenous protein in lysates of human retinal pericytes, immunoprecipitated with an anti-Siah1 antibody

Experiment [1] has as its target B2. Description: co-immunoprecipitation from hRP lysates: IP anti-Siah1, western blot anti-GAPDH. A general note: Immunoblotting shows a protein as a band on a membrane.
Experimental: (§1) Equal amounts of protein (1000 μg) from each sample were mixed with 10 μg of anti-Siah1 antibody overnight at 4° C. Pierce Protein A/G Magnetic Beads were pre-cleared and added to the antigen sample/antibody mixture at room temperature for 1 hr. Beads were collected with a magnetic stand and eluted using 50 μl 4× SDS-PAGE reducing sample buffer at 100° C. for 10 mins. The immuno-complexes were then subjected to Western blot analysis. Siah1-depleted samples served as controls for total pull down of Siah1 from each lysate.
In experiment [2] the target is B1. The experiment is described as above.
Experimental: as §1

As to B1, the “fold increase in GAPDH/Siah1 association (high glucose against osmotic control)” value in experiment [1] was found to be 1.5 fold.

For the molecule B2, in experiment [2], the binding result was “binds”.
